Data reported in publication PMC6411835.

T1: Zip2(499-704);Spo16 (Saccharomyces cerevisiae;Saccharomyces …, UniProt P53061;P17122 499-704;1-198, |)
T1 sequence 1: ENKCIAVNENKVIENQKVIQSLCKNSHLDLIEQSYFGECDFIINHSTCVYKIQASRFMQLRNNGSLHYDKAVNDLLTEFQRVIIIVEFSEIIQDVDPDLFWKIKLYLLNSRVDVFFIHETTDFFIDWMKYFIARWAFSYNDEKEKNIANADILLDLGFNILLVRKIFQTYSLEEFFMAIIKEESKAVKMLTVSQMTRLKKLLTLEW
T1 sequence 2: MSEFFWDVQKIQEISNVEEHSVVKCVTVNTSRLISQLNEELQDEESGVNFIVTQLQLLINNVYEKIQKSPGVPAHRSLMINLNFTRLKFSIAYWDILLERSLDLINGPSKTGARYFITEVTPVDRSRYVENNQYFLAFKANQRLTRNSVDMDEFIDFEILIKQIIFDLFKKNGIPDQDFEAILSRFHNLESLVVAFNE

B1: 40-bp dsDNA (dsDNA)
DNA 1: CCTTTCGAAGACTCATCACGGAGAGCAGACATCATCTGGC
DNA 2: GCCAGATGATGTCTGCTCTCCGTGATGAGTCTTCGAAAGG
B2: 3'-overhang DNA (mixed)
DNA 1: B1 DNA 1
DNA 2: CGTGATGAGTCTTCGAAAGG
B3: Holliday Junction (HJ) (structured_DNA)
DNA 1: B1 DNA 1
DNA 2: ATATATGATTCTAATAAGATCGTGATGAGTCTTCGAAAGG
DNA 3: GCCAGATGATGTCTGCTCTCGTCGTAATGTAAGTGTATGC
DNA 4: GCATACACTTACATTACGACATCTTATTAGAATCATATAT
B4: 5'-overhang DNA (mixed)
DNA 1: B1 DNA 1
DNA 2: GCCAGATGATGTCTGCTCTC

How the values were obtained:
Zip2(499-704);Spo16 [1] = target: T1, Zip2(499-704);Spo16; experiment: EMSA
Zip2(499-704);Spo16 [2] = target: T1, Zip2(499-704);Spo16; experiment: EMSA; remark: listed apart in the source
Zip2(499-704);Spo16 [3] = target: T1, Zip2(499-704);Spo16; experiment: ITC

| Binder | Kd (Zip2(499-704);Spo16 [1]) [µM] | Kd (Zip2(499-704);Spo16 [2]) [µM] | Kd (Zip2(499-704);Spo16 [3]) [µM] |
| --- | --- | --- | --- |
| B1 | 14 |  |  |
| B2 | 17 |  |  |
| B3 |  | 5 | ~1 |
| B4 | 9 |  |  |
